The values that follow come from patent publication US20200317768A1 (published 2020).

Holding throughout (assay): SPR; FcgR bound per captured antibody, normalized to SG1
A general note: Surface plasmon resonance follows binding to a sensor surface in real time, without labels.

For experiment [1], the target named is T1, cynomolgus monkey FcγRIIa1 extracellular domain, C-terminal His-tag (cynomolgus monkey).
T1 construct: also called cyno FcγRIIa1; FcgRIIa1
T1 chain: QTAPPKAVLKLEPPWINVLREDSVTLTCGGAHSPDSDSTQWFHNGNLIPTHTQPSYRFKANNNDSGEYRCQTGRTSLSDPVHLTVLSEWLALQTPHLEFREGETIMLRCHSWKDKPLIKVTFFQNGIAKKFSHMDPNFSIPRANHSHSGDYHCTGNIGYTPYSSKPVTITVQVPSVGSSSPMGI
As to the method:
(§1) The kinetic analysis of interactions between these antibodies and FcγR was carried out using BIACORE® T200 or BIACORE® 4000 (GE Healthcare). HBS-EP+ (GE Healthcare) was used as the running buffer, and the measurement temperature was set to 25° C. A chip produced by immobilizing Protein A. Protein A/G or mouse anti-human IgG kappa light chain (BD Biosciences) onto a Series S Sensor Chip CM4 or CM5 (GE Healthcare) by the amine-coupling method was used. […] After the measurement, the antibody captured on the chip was washed off by allowing reaction with 10 mM glycine-HCl, pH1.5 and 25 mM NaOH so that the chip was regenerated and used repeatedly. The sensorgrams obtained as measurement results were analyzed by the 1:1 Langmuir binding model using the BIACORE® Evaluation Software to calculate the binding rate constant ka (L/mol/s) and dissociation rate constant kd (l/s), and the dissociation constant KD (mol/L) was calculated from these values. […] Regarding such interactions, KD values were calculated using the following 1:1 binding model described in BIACORE® T100 Software Handbook BR1006-48 Edition AE.
(§2) The value of the amount of FcγR binding was obtained by dividing the amount of FcγR bound by the amount of each antibody captured.

Experiment [2] concerns the target T2, cynomolgus monkey FcγRIIa2 extracellular domain, C-terminal His-tag (cynomolgus monkey).
T2 construct: also called cyno FcγRIIa2; FcgRIIa2
T2 chain: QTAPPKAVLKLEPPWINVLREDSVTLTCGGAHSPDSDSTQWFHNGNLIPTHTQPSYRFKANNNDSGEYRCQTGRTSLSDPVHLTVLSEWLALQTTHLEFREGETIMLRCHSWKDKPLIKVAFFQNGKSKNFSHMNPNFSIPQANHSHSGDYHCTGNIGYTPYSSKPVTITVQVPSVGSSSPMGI
As to the method: as §1, §2

The target in experiment [3] is T3, cynomolgus monkey FcγRIIIaS extracellular domain, C-terminal His-tag (cynomolgus monkey, UniProt Q8SPW2 21-206 at identity 1.00)).
T3 construct: also called cyno FcγRIIIaS; FcgRIIIaS
T3 chain: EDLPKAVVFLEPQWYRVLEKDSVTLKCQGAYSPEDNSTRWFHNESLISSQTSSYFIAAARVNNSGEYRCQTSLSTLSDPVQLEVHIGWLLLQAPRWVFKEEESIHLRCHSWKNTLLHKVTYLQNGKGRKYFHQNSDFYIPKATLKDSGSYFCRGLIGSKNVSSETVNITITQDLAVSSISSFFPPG
The method, then: as §1, §2

Experiment [4] has as its target T4, cynomolgus monkey FcγRIIb extracellular domain, C-terminal His-tag (cynomolgus monkey).
T4 construct: also called cyno FcγRIIb; cynoFcγRIIb
T4 chain: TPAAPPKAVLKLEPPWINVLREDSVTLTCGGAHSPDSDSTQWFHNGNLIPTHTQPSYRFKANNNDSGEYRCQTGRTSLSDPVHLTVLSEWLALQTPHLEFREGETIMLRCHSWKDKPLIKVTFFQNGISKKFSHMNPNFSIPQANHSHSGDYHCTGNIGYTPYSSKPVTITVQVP
As to the method:
as §1, §2

Experiment [5] deals with T5, cynomolgus monkey FcγRIIa3 extracellular domain, C-terminal His-tag (cynomolgus monkey).
T5 construct: also called cyno FcγRIIa3; FcgRIIa3
T5 chain: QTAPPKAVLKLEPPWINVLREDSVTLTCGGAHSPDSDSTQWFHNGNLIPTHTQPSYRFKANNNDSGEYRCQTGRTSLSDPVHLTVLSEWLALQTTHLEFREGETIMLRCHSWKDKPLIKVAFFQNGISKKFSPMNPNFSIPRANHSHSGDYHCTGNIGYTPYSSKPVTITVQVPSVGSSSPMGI
The method, then: as §1, §2

B1: M103205H795-SG179/M103202L889-SK1 (antibody, human IgG1, kappa)
heavy: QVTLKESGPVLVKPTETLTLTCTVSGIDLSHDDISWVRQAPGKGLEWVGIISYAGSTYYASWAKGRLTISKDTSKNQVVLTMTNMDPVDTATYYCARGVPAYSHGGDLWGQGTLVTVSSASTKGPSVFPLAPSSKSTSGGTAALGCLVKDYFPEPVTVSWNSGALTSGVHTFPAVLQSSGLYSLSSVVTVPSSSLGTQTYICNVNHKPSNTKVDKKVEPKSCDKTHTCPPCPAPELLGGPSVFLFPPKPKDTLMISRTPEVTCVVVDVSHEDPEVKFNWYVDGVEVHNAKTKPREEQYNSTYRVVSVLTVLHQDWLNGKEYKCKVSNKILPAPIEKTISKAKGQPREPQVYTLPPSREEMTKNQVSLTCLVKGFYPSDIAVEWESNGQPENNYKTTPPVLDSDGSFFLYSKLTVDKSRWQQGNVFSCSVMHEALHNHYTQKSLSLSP
light: DIVMTQSPATLSLSPGERATLSCTSSQSVYHANWLSWFQQKPGQPPKLLIYWASTLAYGVPSRFSGSGSGTDFTLTISSLQPEDAATYYCAGGYGGGRYAFGQGTKVEIKRTVAAPSVFIFPPSDEQLKSGTASVVCLLNNFYPREAKVQWKVDNALQSGNSQESVTEQDSKDSTYSLSSTLTLSKADYEKHKVYACEVTHQGLSSPVTKSFNRGEC
notes: also called A327I
B1: the “amount of FcgR binding (SG1 = 100)” value is 19 SG1 = 100 in experiment [1]; 17 SG1 = 100 in experiment [2]; 48 SG1 = 100 in experiment [3]; 19 SG1 = 100 in experiment [4]; 28 SG1 = 100 in experiment [5].
